The assay deals with T1, recombinant human (rh) BMP2 (human) (UniProt P12643).
T1 sequence: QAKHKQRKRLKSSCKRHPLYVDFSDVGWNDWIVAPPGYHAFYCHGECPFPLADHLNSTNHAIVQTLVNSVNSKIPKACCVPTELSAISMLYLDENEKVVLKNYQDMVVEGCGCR

B1: GREM1^WT-mCherry (human Gremlin1 fused to mCherry) (natural protein)
chain: KKKGSQGAIPPPDKAQHNDSEQTQSPQQPGSRNRGRGQGRGTAMPGEEVLESSQEALHVTERKYLKRDWCKTQPLKQTIHEEGCNSRTIINRFCYGQCNSFYIPRHIRKEEGSFQSCSFCKPKKFTTMMVTLNCPELQPPTKKKRVTRVKQCRCISIDLD
For the molecule B1, the GREM1-mCherry uptake into HCT116 cells (integrated mCherry fluorescence per cell) from conditioned medium with 200 ng/ml BMP2 versus vehicle, overnight (16 h) came to 5 fold.

For the origin of these results see publication PMC12597263.
